In paper PMC9482650, “Quantitative fragmentomics allow affinity mapping of interactomes” (Nature Communications, 2022):

Legend:
Test in all cases: holdup assay
Set-up in all cases: key: below the threshold = too weak to quantify, mostly under pKd 3.1 to 4
[1] = target: T1, APBA1_1, Q02410
T1 sequence (Q02410 651-752, limits assumed, looked up): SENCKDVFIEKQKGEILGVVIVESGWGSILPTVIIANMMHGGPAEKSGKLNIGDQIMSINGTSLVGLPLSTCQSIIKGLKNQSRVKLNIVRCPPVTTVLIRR

[2] = target: T2, ARHGEF11, O15085
T2 sequence (O15085 42-136, limits assumed, looked up): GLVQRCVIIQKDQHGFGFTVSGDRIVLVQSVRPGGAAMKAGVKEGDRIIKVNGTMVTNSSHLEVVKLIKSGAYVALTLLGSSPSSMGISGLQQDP

[3] = target: ARHGEF12, Q9NZN5-2
[4] = target: DLG5_1, Q8TDM6
[5] = target: FRMPD3, Q5JV73
[6] = target: GRID2IP_2, A4D2P6
[7] = target: T3, GRIP1_2, Q9Y3R0
T3 sequence (Q9Y3R0 145-248, limits assumed, looked up): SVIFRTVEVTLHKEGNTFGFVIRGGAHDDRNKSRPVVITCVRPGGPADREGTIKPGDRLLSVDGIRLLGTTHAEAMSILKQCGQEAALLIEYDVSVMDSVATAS

[8] = target: HTRA1, Q92743
[9] = target: IL16_1, Q14005
[10] = target: IL16_3, Q14005
[11] = target: Inadl_3, Q8NI35
[12] = target: Inadl_5, Q8NI35
[13] = target: LNX1_2, Q8TBB1
[14] = target: MAGI2_2, Q86UL8
[15] = target: MAGI3_2, Q5TCQ9
[16] = target: MAST1, Q9Y2H9
[17] = target: T4, MPP7, Q5T2T1
T4 sequence (Q5T2T1 134-230, limits assumed, looked up): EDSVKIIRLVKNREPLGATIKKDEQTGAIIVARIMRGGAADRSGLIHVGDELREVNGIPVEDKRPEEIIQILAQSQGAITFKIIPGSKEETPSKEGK

[18] = target: T5, NHERF3_3, Q5T2W1
T5 sequence (Q5T2W1 238-333, limits assumed, looked up): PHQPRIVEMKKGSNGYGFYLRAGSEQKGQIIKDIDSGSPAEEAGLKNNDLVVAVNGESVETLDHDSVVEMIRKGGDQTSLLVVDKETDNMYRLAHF

[19] = target: PDLIM1, O00151
[20] = target: T6, PDZRN3_1, Q9UPQ7
T6 sequence (Q9UPQ7 244-349, limits assumed, looked up): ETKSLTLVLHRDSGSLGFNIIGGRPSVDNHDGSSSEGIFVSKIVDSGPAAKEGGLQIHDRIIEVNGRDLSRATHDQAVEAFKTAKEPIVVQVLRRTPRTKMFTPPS

[21] = target: PTPN3, P26045
[22] = target: T7, RADIL, Q96JH8
T7 sequence (Q96JH8 971-1071, limits assumed, looked up): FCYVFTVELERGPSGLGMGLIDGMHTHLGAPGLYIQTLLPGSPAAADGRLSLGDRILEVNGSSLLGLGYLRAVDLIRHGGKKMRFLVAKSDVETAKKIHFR

[23] = target: T8, RAPGEF6, Q8TEU7
T8 sequence (Q8TEU7 525-625, limits assumed, looked up): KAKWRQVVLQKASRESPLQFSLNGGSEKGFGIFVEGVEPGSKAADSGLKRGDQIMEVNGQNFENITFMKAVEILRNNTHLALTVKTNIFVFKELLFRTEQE

[24] = target: T9, RHPN1, Q8TCX5
T9 sequence (Q8TCX5 508-602, limits assumed, looked up): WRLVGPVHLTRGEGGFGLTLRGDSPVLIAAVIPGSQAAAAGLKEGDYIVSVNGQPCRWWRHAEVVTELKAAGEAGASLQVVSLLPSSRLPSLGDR

[25] = target: T10, SNTA1, Q13424
T10 sequence (Q13424 82-180, limits assumed, looked up): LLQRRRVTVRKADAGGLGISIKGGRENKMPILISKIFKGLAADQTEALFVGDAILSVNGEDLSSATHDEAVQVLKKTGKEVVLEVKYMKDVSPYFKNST

[26] = target: T11, SNTG2, Q9NY99
T11 sequence (Q9NY99 68-166, limits assumed, looked up): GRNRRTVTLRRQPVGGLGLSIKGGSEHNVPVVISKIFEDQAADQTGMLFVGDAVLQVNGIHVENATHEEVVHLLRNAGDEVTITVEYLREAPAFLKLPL

[27] = target: TJP1_3, Q07157
[28] = plain residues with an end cap or a label only (N-terminal biotin on a linker: ttds)
[29] = plain residues with an end cap or a label only (N-terminal biotin on a linker: ahx)
[30] = plain residues with an end cap or a label only (N-terminal biotin on a linker: ado-ado)

LNX1_2, Q8TBB1, sequence (Q8TBB1 371-470): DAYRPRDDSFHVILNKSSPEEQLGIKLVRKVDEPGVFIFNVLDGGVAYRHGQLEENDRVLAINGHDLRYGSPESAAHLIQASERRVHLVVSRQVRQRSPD
ARHGEF12, Q9NZN5-2, sequence (Q9NZN5 other isoform, or with tags, fused parts or gaps): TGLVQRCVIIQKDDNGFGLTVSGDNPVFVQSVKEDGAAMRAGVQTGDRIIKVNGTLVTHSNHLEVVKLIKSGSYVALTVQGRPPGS
HTRA1, Q92743, sequence (Q92743 360-477): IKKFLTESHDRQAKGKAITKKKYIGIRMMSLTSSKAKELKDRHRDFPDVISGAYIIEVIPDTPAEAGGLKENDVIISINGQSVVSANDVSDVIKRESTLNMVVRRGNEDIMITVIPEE
MAGI2_2, Q86UL8, sequence (Q86UL8 410-522): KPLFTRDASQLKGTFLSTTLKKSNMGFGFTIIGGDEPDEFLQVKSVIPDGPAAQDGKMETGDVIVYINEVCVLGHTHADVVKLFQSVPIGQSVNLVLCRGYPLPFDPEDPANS
PTPN3, P26045, sequence (P26045 505-587): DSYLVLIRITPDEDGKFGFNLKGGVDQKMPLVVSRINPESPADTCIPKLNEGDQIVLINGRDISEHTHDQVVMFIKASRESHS
PDLIM1, O00151, sequence (O00151 1-87): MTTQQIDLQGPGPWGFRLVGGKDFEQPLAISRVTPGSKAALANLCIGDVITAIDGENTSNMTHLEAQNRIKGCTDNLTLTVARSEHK
MAST1, Q9Y2H9, sequence (Q9Y2H9 962-1065): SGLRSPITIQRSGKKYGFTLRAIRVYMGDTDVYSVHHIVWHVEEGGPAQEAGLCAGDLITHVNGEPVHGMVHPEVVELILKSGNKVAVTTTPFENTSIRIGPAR
TJP1_3, Q07157, sequence (Q07157 416-512): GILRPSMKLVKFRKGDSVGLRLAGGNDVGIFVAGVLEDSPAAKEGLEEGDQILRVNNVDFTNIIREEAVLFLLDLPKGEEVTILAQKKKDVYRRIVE
Inadl_3, Q8NI35, sequence (Q8NI35 359-469): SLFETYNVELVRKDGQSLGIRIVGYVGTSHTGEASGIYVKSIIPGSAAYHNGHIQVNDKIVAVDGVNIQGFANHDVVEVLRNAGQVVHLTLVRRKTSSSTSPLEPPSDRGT
FRMPD3, Q5JV73, sequence (Q5JV73 12-100): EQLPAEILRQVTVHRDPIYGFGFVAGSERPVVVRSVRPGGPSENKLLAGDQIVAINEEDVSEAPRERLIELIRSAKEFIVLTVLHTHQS
GRID2IP_2, A4D2P6, sequence (A4D2P6 272-370): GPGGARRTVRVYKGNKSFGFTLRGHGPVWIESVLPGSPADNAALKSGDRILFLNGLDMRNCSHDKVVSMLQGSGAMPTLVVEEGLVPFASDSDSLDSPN
Inadl_5, Q8NI35, sequence (Q8NI35 673-780): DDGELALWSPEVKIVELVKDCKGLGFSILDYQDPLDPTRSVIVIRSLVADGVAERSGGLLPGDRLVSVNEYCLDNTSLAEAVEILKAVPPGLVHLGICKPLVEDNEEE
DLG5_1, Q8TDM6, sequence (Q8TDM6 617-713): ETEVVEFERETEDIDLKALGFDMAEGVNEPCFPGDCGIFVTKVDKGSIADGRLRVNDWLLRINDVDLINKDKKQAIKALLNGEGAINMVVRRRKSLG
MAGI3_2, Q5TCQ9, sequence (Q5TCQ9 398-503): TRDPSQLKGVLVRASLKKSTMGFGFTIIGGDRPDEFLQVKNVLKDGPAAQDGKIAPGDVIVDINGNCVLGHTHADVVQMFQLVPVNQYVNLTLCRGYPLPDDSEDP
IL16_1, Q14005, sequence (Q14005 210-306): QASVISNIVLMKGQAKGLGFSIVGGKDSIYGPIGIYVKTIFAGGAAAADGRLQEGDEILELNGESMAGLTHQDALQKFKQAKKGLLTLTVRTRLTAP
IL16_3, Q14005, sequence (Q14005 1107-1207): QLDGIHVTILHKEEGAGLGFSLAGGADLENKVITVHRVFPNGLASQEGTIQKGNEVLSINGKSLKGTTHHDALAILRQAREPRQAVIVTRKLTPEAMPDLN

HIVEALETDV [PBK, Q96KB5]
pKd [1, 28]: below the threshold
pKd [2, 28]: 4.31
pKd [3, 28]: 4.23
pKd [4, 28]: below the threshold
pKd [5, 28]: below the threshold
pKd [6, 28]: 3.96
pKd [7, 28]: below the threshold
pKd [8, 28]: below the threshold
pKd [9, 28]: 3.97
pKd [10, 28]: below the threshold
pKd [11, 28]: 4.46
pKd [12, 28]: below the threshold
pKd [13, 28]: below the threshold
pKd [14, 28]: below the threshold
pKd [15, 28]: 4.29
pKd [16, 28]: 5.15
pKd [17, 28]: below the threshold
pKd [18, 28]: below the threshold
pKd [19, 28]: 3.91
pKd [20, 28]: below the threshold
pKd [21, 28]: 5.11
pKd [22, 28]: below the threshold
pKd [23, 28]: below the threshold
pKd [24, 28]: 4.91
pKd [25, 28]: 5.28
pKd [26, 28]: 4.85
pKd [27, 28]: below the threshold

KTSAHHATFV [RGS12, O14924]
pKd [1, 29]: below the threshold
pKd [2, 29]: 3.6
pKd [3, 29]: 3.82
pKd [4, 29]: below the threshold
pKd [5, 29]: below the threshold
pKd [6, 29]: 4.27
pKd [7, 29]: below the threshold
pKd [8, 29]: 4.43
pKd [9, 29]: below the threshold
pKd [10, 29]: below the threshold
pKd [11, 29]: below the threshold
pKd [12, 29]: 3.86
pKd [13, 29]: 3.54
pKd [14, 29]: 4.29
pKd [15, 29]: 4.72
pKd [16, 29]: 3.65
pKd [17, 29]: below the threshold
pKd [18, 29]: below the threshold
pKd [19, 29]: below the threshold
pKd [20, 29]: below the threshold
pKd [21, 29]: 3.92
pKd [22, 29]: 5.28
pKd [23, 29]: below the threshold
pKd [24, 29]: 4.03
pKd [25, 29]: 3.63
pKd [26, 29]: below the threshold
pKd [27, 29]: below the threshold

SVVSERISSV [HTR2C, P28335]
pKd [1, 30]: below the threshold
pKd [2, 30]: 3.84
pKd [3, 30]: 4.18
pKd [4, 30]: below the threshold
pKd [5, 30]: below the threshold
pKd [6, 30]: 4.44
pKd [7, 30]: below the threshold
pKd [8, 30]: 4.18
pKd [9, 30]: 4.56
pKd [10, 30]: below the threshold
pKd [11, 30]: below the threshold
pKd [12, 30]: below the threshold
pKd [13, 30]: below the threshold
pKd [14, 30]: 3.77
pKd [15, 30]: 4.46
pKd [16, 30]: 4.02
pKd [17, 30]: below the threshold
pKd [18, 30]: below the threshold
pKd [19, 30]: below the threshold
pKd [20, 30]: 3.51
pKd [21, 30]: 4.8
pKd [22, 30]: 3.74
pKd [23, 30]: below the threshold
pKd [24, 30]: 4.65
pKd [25, 30]: 4.59
pKd [26, 30]: below the threshold
pKd [27, 30]: below the threshold
